Reference: PMC3034019

Biological target: Oregon-Green-labelled actin monomers (OG-actin) (UniProt P68135)
Test: stopped-flow fluorescence kinetics

## EVH2 domain of human VASP (hEVH2) (domain or fragment)
  kon: 1.2e+07 to 1.8e+07 M⁻¹ s⁻¹
